From the supplement of paper PMC10201428
± gives the standard deviation of the averaged measurements.

What was measured:
[1] = system: VchCAST RNA-guided transposition machinery (E. coli BL21(DE3) host, lacZ target); assay: relative integration efficiency (T-LR orientation) vs wild-type transposon end (log2 (normalized fold change)); transposon end mutated: right end (5 bp flank + 75 bp right end); higher = more efficient transposition
In short: (§1)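 Pools of 1549 left-end or 1849 right-end barcoded transposon variants were cloned into a pUC57 mini-transposon donor and co-transformed into E. coli BL21(DE3) with a T7-driven effector plasmid carrying a CRISPR array, tniQ-cas8-cas7-cas6 and tnsA-tnsB-tnsC. Plating used 0.1 mM IPTG at 37°C for 18 h, and input plasmids and genomic integration junctions were PCR-amplified for Illumina sequencing, with two biological output replicates and four reference barcodes. Relative integration efficiency is the log-transformed fold change of output over input barcode abundance, normalised to the reference barcodes.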

[2] = system: VchCAST RNA-guided transposition machinery (E. coli BL21(DE3) host, lacZ target); assay: relative integration efficiency (T-RL orientation) vs wild-type transposon end (log2 (normalized fold change)); transposon end mutated: right end (5 bp flank + 75 bp right end); higher = more efficient transposition
In short: as §1

Sequence: ACATTTGTTGATACAACCATAAAAGGATCATTACCCCCATCAATTGATAATTATCACACCCCATTTAACTATAACGCTCTGATCATAGTCAGACCAACATTGCTACGACCCGTATTCGCACCGACAC
- relative integration efficiency (log2) [1]: -1.38 ± 0.048
- relative integration efficiency (log2) [2]: -4.59 ± 0.85

Sequence: ACATTTGTTGATACAACCATAAAAGGATCATTACCCCCATCAATTGATAATTATCCCACCCAATTTAACTATAACGCTCTGATCATAGTCAGACCAACATTGCTACGACCCGTATTCGCACCGACAC
- relative integration efficiency (log2) [1]: -0.858 ± 0.08
- relative integration efficiency (log2) [2]: -3.59 ± 0.36

Sequence: ACATTTGTTGATACAACCATAAAAGGATCATTACCCCCATCAATTGATAATTATCCCACCCCATTTAACTATAACGCTCTGATCATAGTCAGACCAACATTGCTACGACCCGTATTCGCACCGACAC
- relative integration efficiency (log2) [1]: -1.31 ± 0.15
- relative integration efficiency (log2) [2]: -4.43 ± 0.28

Sequence: ACATTTGTTGATACAACCATAAAAGGATCATTCACCCATAAATTGATAATTATCACACCCACATTTAACTATAACGCTCTGATCATAGTCAGACCAACATTGCTACGACCCGTATTCGCACCGACAC
- relative integration efficiency (log2) [1]: -0.0129 ± 0.14
- relative integration efficiency (log2) [2]: -3.13 ± 0.14

Sequence: ACATTTGTTGATACAACCATAAAAGGATCATTCACCCCTAAATTGATAATTATCACACCCACATTTAACTATAACGCTCTGATCATAGTCAGACCAACATTGCTACGACCCGTATTCGCACCGACAC
- relative integration efficiency (log2) [1]: -1.36 ± 0.36
- relative integration efficiency (log2) [2]: -4.73 ± 0.18

Sequence: ACATTTGTTGATACAACCATAAAAGGATTATTACACCCATTAATTGATAATTATCACACCCAATTTAACTATAACGCTCTGATCATAGTCAGACCAACATTGCTACGACCCGTATTCGCACCGACAC
- relative integration efficiency (log2) [1]: 1.27 ± 0.069
- relative integration efficiency (log2) [2]: -2.02 ± 0.28

Sequence: ACATTTGTTGATACAACCATAAAAGTATAATTACACCCATAAATTGATAATTATCACACCCATAAATTGATATTGCCTCTGATCATAGTCAGACCAACATTGCTACGACCCGTATTCGCACCGACAC
- relative integration efficiency (log2) [1]: -0.606 ± 0.35
- relative integration efficiency (log2) [2]: -0.954 ± 0.16

Sequence: ACATTTGTTGATACAACCATAAAAGTCGAATTACACCCATAAATTGATAATTATCACACCCATAAATTGATATTGCCTCTGATCATAGTCAGACCAACATTGCTACGACCCGTATTCGCACCGACAC
- relative integration efficiency (log2) [1]: -3.24 ± 0.7
- relative integration efficiency (log2) [2]: -2.69 ± 0.26

Sequence: ACATTTGTTGATACAACCATAAAAGTCGCCGGCACAAACGCCCGGTCGCCGGCGACACAAACGCCCGGTCGCGGTAAGAGGATCATAGTCAGACCAACATTGCTACGACCCGTATTCGCACCGACAC
- relative integration efficiency (log2) [1]: -2.61 ± 0.042
- relative integration efficiency (log2) [2]: -5.34 ± 0.34

Sequence: ACATTTGTTGATACAACCATAAAATCATAATTACACCCATAAATTCATAATTATCACACCCATAAATTCATATTGCCTCTGATCATAGTCAGACCAACATTGCTACGACCCGTATTCGCACCGACAC
- relative integration efficiency (log2) [1]: -1.52 ± 0.48
- relative integration efficiency (log2) [2]: -4.92 ± 0.57

Sequence: ACATTTGTTGATACAACCATAAAATCATAATTACACCCATAAATTGATAATTATCACACCCCATTTAACTATAACGCTCTGATCATAGTCAGACCAACATTGCTACGACCCGTATTCGCACCGACAC
- relative integration efficiency (log2) [1]: 1.21 ± 0.17
- relative integration efficiency (log2) [2]: -2.85 ± 0.24

Sequence: ACATTTGTTGATACAACCATAAAATCATAATTACACCCATAAATTGATAATTATCCCACCCAATTTAACTATAACGCTCTGATCATAGTCAGACCAACATTGCTACGACCCGTATTCGCACCGACAC
- relative integration efficiency (log2) [1]: 1.64 ± 0.041
- relative integration efficiency (log2) [2]: -2.19 ± 0.14

Sequence: ACATTTGTTGATACAACCATAAAATCATAATTACACCCATAAATTGATAATTATCCCACCCCATTTAACTATAACGCTCTGATCATAGTCAGACCAACATTGCTACGACCCGTATTCGCACCGACAC
- relative integration efficiency (log2) [1]: 1.23 ± 0.046
- relative integration efficiency (log2) [2]: -2.73 ± 0.22

Sequence: ACATTTGTTGATACAACCATAAAATCATAATTACACCCATCAATTGATAATTATCACACCCAATTTAACTATAACGCTCTGATCATAGTCAGACCAACATTGCTACGACCCGTATTCGCACCGACAC
- relative integration efficiency (log2) [1]: -0.27 ± 0.36
- relative integration efficiency (log2) [2]: -4.01 ± 0.22

Sequence: ACATTTGTTGATACAACCATAAAATCATAATTACACCCATCAATTGATAATTATCACACCCCATTTAACTATAACGCTCTGATCATAGTCAGACCAACATTGCTACGACCCGTATTCGCACCGACAC
- relative integration efficiency (log2) [1]: -0.773 ± 0.047
- relative integration efficiency (log2) [2]: -4.31 ± 0.11

Sequence: ACATTTGTTGATACAACCATAAAATCATAATTACACCCATCAATTGATAATTATCCCACCCAATTTAACTATAACGCTCTGATCATAGTCAGACCAACATTGCTACGACCCGTATTCGCACCGACAC
- relative integration efficiency (log2) [1]: -0.195 ± 0.066
- relative integration efficiency (log2) [2]: -3.92 ± 0.52

Sequence: ACATTTGTTGATACAACCATAAAATCATAATTACACCCATCAATTGATAATTATCCCACCCCATTTAACTATAACGCTCTGATCATAGTCAGACCAACATTGCTACGACCCGTATTCGCACCGACAC
- relative integration efficiency (log2) [1]: -0.633 ± 0.39
- relative integration efficiency (log2) [2]: -4.292 ± 0.026

Sequence: ACATTTGTTGATACAACCATAAAATCATAATTACCCCCATAAATTGATAATTATCACACCCAATTTAACTATAACGCTCTGATCATAGTCAGACCAACATTGCTACGACCCGTATTCGCACCGACAC
- relative integration efficiency (log2) [1]: 0.699 ± 0.11
- relative integration efficiency (log2) [2]: -3.09 ± 0.33

Sequence: ACATTTGTTGATACAACCATAAAATCATAATTACCCCCATAAATTGATAATTATCACACCCCATTTAACTATAACGCTCTGATCATAGTCAGACCAACATTGCTACGACCCGTATTCGCACCGACAC
- relative integration efficiency (log2) [1]: 0.532 ± 0.1
- relative integration efficiency (log2) [2]: -3.3 ± 0.19

Sequence: ACATTTGTTGATACAACCATAAAATCATAATTACCCCCATAAATTGATAATTATCCCACCCAATTTAACTATAACGCTCTGATCATAGTCAGACCAACATTGCTACGACCCGTATTCGCACCGACAC
- relative integration efficiency (log2) [1]: 3.39 ± 0.37
- relative integration efficiency (log2) [2]: -0.611 ± 0.71

Sequence: ACATTTGTTGATACAACCATAAAATCATAATTACCCCCATAAATTGATAATTATCCCACCCCATTTAACTATAACGCTCTGATCATAGTCAGACCAACATTGCTACGACCCGTATTCGCACCGACAC
- relative integration efficiency (log2) [1]: 0.676 ± 0.046
- relative integration efficiency (log2) [2]: -3.28 ± 0.32

Sequence: ACATTTGTTGATACAACCATAAAATCATAATTACCCCCATCAATTGATAATTATCACACCCAATTTAACTATAACGCTCTGATCATAGTCAGACCAACATTGCTACGACCCGTATTCGCACCGACAC
- relative integration efficiency (log2) [1]: -2.04 ± 0.46
- relative integration efficiency (log2) [2]: -5.12 ± 0.12

Sequence: ACATTTGTTGATACAACCATAAAATCATAATTACCCCCATCAATTGATAATTATCACACCCCATTTAACTATAACGCTCTGATCATAGTCAGACCAACATTGCTACGACCCGTATTCGCACCGACAC
- relative integration efficiency (log2) [1]: -1.5 ± 0.28
- relative integration efficiency (log2) [2]: -5.34 ± 0.18

Sequence: ACATTTGTTGATACAACCATAAAATCATAATTACCCCCATCAATTGATAATTATCCCACCCAATTTAACTATAACGCTCTGATCATAGTCAGACCAACATTGCTACGACCCGTATTCGCACCGACAC
- relative integration efficiency (log2) [1]: -1.33 ± 0.49
- relative integration efficiency (log2) [2]: -5.51 ± 0.13

Sequence: ACATTTGTTGATACAACCATAAAATCATAATTACCCCCATCAATTGATAATTATCCCACCCCATTTAACTATAACGCTCTGATCATAGTCAGACCAACATTGCTACGACCCGTATTCGCACCGACAC
- relative integration efficiency (log2) [1]: -2.4 ± 0.19
- relative integration efficiency (log2) [2]: -5.42 ± 0.086

Sequence: ACATTTGTTGATACAACCATAAAATCATAATTCACCCATAAATTGATAATTATCACACCCACATTTAACTATAACGCTCTGATCATAGTCAGACCAACATTGCTACGACCCGTATTCGCACCGACAC
- relative integration efficiency (log2) [1]: -0.0705 ± 0.067
- relative integration efficiency (log2) [2]: -4.53 ± 0.24

Sequence: ACATTTGTTGATACAACCATAAAATCATAATTCACCCCTAAATTGATAATTATCACACCCACATTTAACTATAACGCTCTGATCATAGTCAGACCAACATTGCTACGACCCGTATTCGCACCGACAC
- relative integration efficiency (log2) [1]: -1.89 ± 0.27
- relative integration efficiency (log2) [2]: -6.26 ± 0.19

Sequence: ACATTTGTTGATACAACCATAAAATCATCATTACACCCATAAATTGATAATTATCACACCCAATTTAACTATAACGCTCTGATCATAGTCAGACCAACATTGCTACGACCCGTATTCGCACCGACAC
- relative integration efficiency (log2) [1]: 0.617 ± 0.13
- relative integration efficiency (log2) [2]: -3.16 ± 0.25

Sequence: ACATTTGTTGATACAACCATAAAATCATCATTACACCCATAAATTGATAATTATCACACCCCATTTAACTATAACGCTCTGATCATAGTCAGACCAACATTGCTACGACCCGTATTCGCACCGACAC
- relative integration efficiency (log2) [1]: 0.57 ± 0.096
- relative integration efficiency (log2) [2]: -3.39 ± 0.35

Sequence: ACATTTGTTGATACAACCATAAAATCATCATTACACCCATAAATTGATAATTATCCCACCCAATTTAACTATAACGCTCTGATCATAGTCAGACCAACATTGCTACGACCCGTATTCGCACCGACAC
- relative integration efficiency (log2) [1]: 0.728 ± 0.058
- relative integration efficiency (log2) [2]: -3.07 ± 0.5

Sequence: ACATTTGTTGATACAACCATAAAATCATCATTACACCCATAAATTGATAATTATCCCACCCCATTTAACTATAACGCTCTGATCATAGTCAGACCAACATTGCTACGACCCGTATTCGCACCGACAC
- relative integration efficiency (log2) [1]: 0.992 ± 0.31
- relative integration efficiency (log2) [2]: -2.81 ± 0.49

Sequence: ACATTTGTTGATACAACCATAAAATCATCATTACACCCATCAATTGATAATTATCACACCCAATTTAACTATAACGCTCTGATCATAGTCAGACCAACATTGCTACGACCCGTATTCGCACCGACAC
- relative integration efficiency (log2) [1]: -0.508 ± 0.42
- relative integration efficiency (log2) [2]: -4.74 ± 0.38

Sequence: ACATTTGTTGATACAACCATAAAATCATCATTACACCCATCAATTGATAATTATCACACCCCATTTAACTATAACGCTCTGATCATAGTCAGACCAACATTGCTACGACCCGTATTCGCACCGACAC
- relative integration efficiency (log2) [1]: -1.24 ± 0.14
- relative integration efficiency (log2) [2]: -4.88 ± 0.26

Sequence: ACATTTGTTGATACAACCATAAAATCATCATTACACCCATCAATTGATAATTATCCCACCCAATTTAACTATAACGCTCTGATCATAGTCAGACCAACATTGCTACGACCCGTATTCGCACCGACAC
- relative integration efficiency (log2) [1]: -1.17 ± 0.061
- relative integration efficiency (log2) [2]: -4.67 ± 0.2

Sequence: ACATTTGTTGATACAACCATAAAATCATCATTACACCCATCAATTGATAATTATCCCACCCCATTTAACTATAACGCTCTGATCATAGTCAGACCAACATTGCTACGACCCGTATTCGCACCGACAC
- relative integration efficiency (log2) [1]: -1.08 ± 0.22
- relative integration efficiency (log2) [2]: -4.36 ± 0.26
